Test results as given in patent publication US20170037440A1 (MEDIZINISCHE HOCHSCHULE HANNOVER, published 2017).

Molecular target: the molecule itself
Experiment: analytical size exclusion chromatography, self-association

B1: Δ69-CsaBco-His6 (enzyme)
chain: MLIPINFFNFEYIVKKLNNQNAIGVYILPSNLTLKPALCILESHKEDFLNKFLLTISSENLKLQYKFNGQIKNPKSVNEIWTDLFSIAHVDMKLSTDRTLSSSISQFWFRLEFCKEDKDFILFPTANRYSRKLWKHSIKNNQLFKEGIRNYSEISSLPYEEDHNFDIDLVFTWVNSEDKNWQELYKKYKPDFNSDATSTSRFLSRDELKFALRSWEMNGSFIRKIFIVSNCAPPAWLDLNNPKIQWVYHEEIMPQSALPTFSSHAIETSLHHIPGISNYFIYSNDDFLLTKPLNKDNFFYSNGIAKLRLEAWGNVNGECTEGEPDYLNGARNANTLLEKEFKKFTTKLHTHSPQSMRTDILFEMEKKYPEEFNRTLHNKFRSLDDIAVTGYLYHHYALLSGRALQSSDKTELVQQNHDFKKKLNNVVTLTKERNFDKLPLSVCINDGADSHLNEEWNVQVIKFLETLFPLPSSFEKLEHHHHHH
notes: also called ΔN69-CsaB; dN69-CsaB
  binding result: binds
